In publication PMC7525818 (Molecular Biology of the Cell, 2020):

B1: recombinant full-length human advillin (GST tag cleaved) (natural protein, UniProt O75366 1-819, looked up)
chain: MPLTSAFRAVDNDPGIIVWRIEKMELALVPVSAHGNFYEGDCYVILSTRRVASLLSQDIHFWIGKDSSQDEQSCAAIYTTQLDDYLGGSPVQHREVQYHESDTFRGYFKQGIIYKQGGVASGMKHVETNTYDVKRLLHVKGKRNIRATEVEMSWDSFNRGDVFLLDLGKVIIQWNGPESNSGERLKAMLLAKDIRDRERGGRAKIGVIEGDKEAASPELMKVLQDTLGRRSIIKPTVPDEIIDQKQKSTIMLYHISDSAGQLAVTEVATRPLVQDLLNHDDCYILDQSGTKIYVWKGKGATKAEKQAAMSKALGFIKMKSYPSSTNVETVNDGAESAMFKQLFQKWSVKDQTMGLGKTFSIGKIAKVFQDKFDVTLLHTKPEVAAQERMVDDGNGKVEVWRIENLELVPVEYQWYGFFYGGDCYLVLYTYEVNGKPHHILYIWQGRHASQDELAASAYQAVEVDRQFDGAAVQVRVRMGTEPRHFMAIFKGKLVIFEGGTSRKGNAEPDPPVRLFQIHGNDKSNTKAVEVPAFASSLNSNDVFLLRTQAEHYLWYGKGSSGDERAMAKELASLLCDGSENTVAEGQEPAEFWDLLGGKTPYANDKRLQQEILDVQSRLFECSNKTGQFVVTEITDFTQDDLNPTDVMLLDTWDQVFLWIGAEANATEKESALATAQQYLHTHPSGRDPDTPILIIKQGFEPPIFTGWFLAWDPNIWSAGKTYEQLKEELGDAAAIMRITADMKNATLSLNSNDSEPKYYPIAVLLKNQNQELPEDVNPAKKENYLSEQDFVSVFGITRGQFAALPGWKQLQMKKEKGLF
B2: recombinant full-length human villin (GST tag cleaved) (natural protein, UniProt P09327 1-827, looked up)
chain: MTKLSAQVKGSLNITTPGLQIWRIEAMQMVPVPSSTFGSFFDGDCYIILAIHKTASSLSYDIHYWIGQDSSLDEQGAAAIYTTQMDDFLKGRAVQHREVQGNESEAFRGYFKQGLVIRKGGVASGMKHVETNSYDVQRLLHVKGKRNVVAGEVEMSWKSFNRGDVFLLDLGKLIIQWNGPESTRMERLRGMTLAKEIRDQERGGRTYVGVVDGENELASPKLMEVMNHVLGKRRELKAAVPDTVVEPALKAALKLYHVSDSEGNLVVREVATRPLTQDLLSHEDCYILDQGGLKIYVWKGKKANEQEKKGAMSHALNFIKAKQYPPSTQVEVQNDGAESAVFQQLFQKWTASNRTSGLGKTHTVGSVAKVEQVKFDATSMHVKPQVAAQQKMVDDGSGEVQVWRIENLELVPVDSKWLGHFYGGDCYLLLYTYLIGEKQHYLLYVWQGSQASQDEITASAYQAVILDQKYNGEPVQIRVPMGKEPPHLMSIFKGRMVVYQGGTSRTNNLETGPSTRLFQVQGTGANNTKAFEVPARANFLNSNDVFVLKTQSCCYLWCGKGCSGDEREMAKMVADTISRTEKQVVVEGQEPANFWMALGGKAPYANTKRLQEENLVITPRLFECSNKTGRFLATEIPDFNQDDLEEDDVFLLDVWDQVFFWIGKHANEEEKKAAATTAQEYLKTHPSGRDPETPIIVVKQGHEPPTFTGWFLAWDPFKWSNTKSYEDLKAELGNSRDWSQITAEVTSPKVDVFNANSNLSSGPLPIFPLEQLVNKPVEELPEGVDPSRKEEHLSIEDFTQAFGMTPAAFSALPRWKQQNLKKEKGLF

Target: the molecule itself
Assay: cross-linking

Protein | binding result | stoichiometry N
B1 | binds | –
B2 | – | 2
